Source: patent US20260028391A1
Like-named read-outs stand apart in the source and are kept apart here.

Experiments:
[1] = target: RSV fusion glycoprotein (RSV-F) of the RSV used in the neutralization of Table 33 (respiratory syncytial virus, strain not stated); experiment: cell-based or functional assay
[2] = target: fusion glycoprotein (F) of the MPV used in the neutralization of Table 34 (metapneumovirus); experiment: cell-based or functional assay
[3] = target: fusion glycoprotein of RSV A2 BPR-344-00 (BEI NR-12149) (respiratory syncytial virus A2) (UniProt P03420); experiment: cell-based or functional assay
[4] = target: fusion glycoprotein of RSV B1 BPR-348-00 (BEI NR-4052) (respiratory syncytial virus B1) (UniProt O36634); experiment: cell-based or functional assay
[5] = target: fusion glycoprotein of the RSV used in the neutralization assay of Example 1 (respiratory syncytial virus (strain not stated)); experiment: cell-based or functional assay
[6] = target: RSV fusion glycoprotein (RSV-F) (respiratory syncytial virus (strain not stated)); experiment: SPR; sensors loaded with RSV-F, mAb in solution (Experiment 2)
[7] = target: MPV fusion glycoprotein with the D280N mutation (MPV-F N280) (metapneumovirus); experiment: SPR; F protein loaded on streptavidin sensors, mAb in solution
[8] = target: MPV fusion glycoprotein without the D280N mutation (MPV-F D280) (metapneumovirus); experiment: as above
[9] = target: RSV fusion glycoprotein (RSV-F) (respiratory syncytial virus); experiment: as above
RSV-A F (RSV A) [10] = experiment: BLI
RSV-B F (RSV B) [11] = experiment: BLI
[12] = target: RSV A Randall fusion glycoprotein (F) (RSV A, strain Randall); experiment: cell-based or functional assay
[13] = target: RSV A fusion glycoprotein (F), virus of the neutralisation assays of Tables 54 and 57 (RSV A); experiment: cell-based or functional assay
[14] = target: RSV A2 BPR-344-00 (BEI NR-12149) fusion glycoprotein (F) (RSV A, strain A2) (UniProt P03420); experiment: cell-based or functional assay
[15] = target: RSV B 9719/09 fusion glycoprotein (F) (RSV B, strain 9719/09); experiment: cell-based or functional assay
[16] = target: RSV B1 BPR-348-00 (BEI NR-4052) fusion glycoprotein (F) (RSV B, strain B1) (UniProt O36634); experiment: cell-based or functional assay
[17] = target: RSV-B B18537/62 F protein (RSV B, strain B18537/62) (UniProt P13843); experiment: cell-based or functional assay
[18] = target: RSV-B B9320 F protein (RSV B, strain B9320); experiment: cell-based or functional assay
[19] = target: RSV-long strain fusion glycoprotein (F) (RSV, long strain) (UniProt P12568); experiment: cell-based or functional assay
[20] = target: fusion glycoprotein (F) of MPV A GFP (Tables 41 and 43) (metapneumovirus A); experiment: cell-based or functional assay
[21] = target: fusion glycoprotein (F) of RSV A GFP (Tables 41 and 42) (respiratory syncytial virus A); experiment: cell-based or functional assay
[22] = target: fusion glycoprotein (F) of RSV B GFP (Tables 41 and 42) (respiratory syncytial virus B); experiment: cell-based or functional assay
[23] = target: RSV A 2000/3-4 fusion glycoprotein (F) (RSV A, strain A 2000/3-4); experiment: cell-based or functional assay
[24] = target: RSV A 2001/3-12 fusion glycoprotein (F) (RSV A, strain A 2001/3-12); experiment: cell-based or functional assay
[25] = target: RSV A1997/12-35 fusion glycoprotein (F) (RSV A, strain A1997/12-35); experiment: cell-based or functional assay
[26] = target: RSV A1998/3-2 fusion glycoprotein (F) (RSV A, strain A1998/3-2); experiment: cell-based or functional assay
[27] = target: RSV A2 (screening GFP strain) fusion glycoprotein (F) (RSV A); experiment: cell-based or functional assay
[28] = target: RSV A2 BPR-344-00 (BEI NR-12149) fusion glycoprotein (F) (RSV A, strain A2) (UniProt P03420); experiment: cell-based or functional assay; remark: listed apart in the source
[29] = target: RSV A2 VR 1540 fusion glycoprotein (F) (RSV A, strain A2 (VR 1540)) (UniProt P03420); experiment: cell-based or functional assay
[30] = target: RSV B (screening GFP strain) fusion glycoprotein (F) (RSV B); experiment: cell-based or functional assay
[31] = target: RSV Ds Red 5 fusion glycoprotein (F) (RSV, strain printed as Ds Red 5); experiment: cell-based or functional assay
[32] = target: RSV F A G446E (RSV A, strain A2) (UniProt P03420); experiment: FACS, % binding to RSV F A variants
[33] = target: RSV F A L203I (RSV A, strain A2) (UniProt P03420); experiment: FACS, % binding to RSV F A variants
[34] = target: RSV F A N208Y-N671I (RSV A, strain A2) (UniProt P03420); experiment: FACS, % binding to RSV F A variants
[35] = target: RSV F A S433P (RSV A, strain A2) (UniProt P03420); experiment: FACS, % binding to RSV F A variants
[36] = target: RSV F A S433P-G446E (RSV A, strain A2) (UniProt P03420); experiment: FACS, % binding to RSV F A variants
[37] = target: RSV F A S443P-K445N (RSV A, strain A2) (UniProt P03420); experiment: FACS, % binding to RSV F A variants
[38] = target: RSV F A, A2 Ref (RSV A, strain A2) (UniProt P03420); experiment: FACS, % binding to RSV F A variants
[39] = target: RSV F B K68N-N201S (RSV B); experiment: FACS, % binding to RSV F B variants
[40] = target: RSV F B K68N-N208S (RSV B); experiment: FACS, % binding to RSV F B variants
RSV F B N201S (RSV B) = experiment: FACS, % binding to RSV F B variants
RSV F B N208D (RSV B) = experiment: FACS, % binding to RSV F B variants
RSV F B N208S (RSV B) = experiment: FACS, % binding to RSV F B variants
RSV F B S443P (RSV B) = experiment: FACS, % binding to RSV F B variants
RSV F B, B Ref (RSV B) = experiment: FACS, % binding to RSV F B variants
RSV-A F (RSV A) [41] = experiment: affinity; method not given
RSV-B F (RSV B) [42] = experiment: affinity; method not given
[43] = target: biot-RSV-F wt (respiratory syncytial virus (RSV)); experiment: BLI (Octet), biotinylated F on SA sensors, mAb 5 µg/ml
[44] = target: RSV fusion glycoprotein (RSV-F) of RSV-A (A2) (respiratory syncytial virus A, strain A2) (UniProt P03420); experiment: cell-based or functional assay
[45] = target: RSV fusion glycoprotein (RSV-F) of RSV-B (B1) (respiratory syncytial virus B, strain B1) (UniProt O36634); experiment: cell-based or functional assay

D25-rIgG1 (antibody)
IC50 (ng/mL) in neutralization against RSV [1]: 0.929 ng/mL | IC50 (ng/mL) in neutralization against MPV [2]: > 2000 ng/mL

MEDI8897 (antibody)
RSV Neutralization by MPK44 and MPK65-v2 - IC50 [3]: 0.2 ng/mL | RSV and MPV Neutralization (IC50 ng/ml) [3]: 0.208 ng/mL | RSV Neutralization by MPK44 and MPK65-v2 - IC50 [4]: 0.4 ng/mL | RSV and MPV Neutralization (IC50 ng/ml) [4]: 0.447 ng/mL | RSV Neutralization - IC50 [5]: 0.8 ng/mL | Kd [6]: 0.001 nM | Kd [7]: 100 nM | Kd [8]: 100 nM | Kd [9]: 0.001 nM

MEDI8897-rIgG1-YTE (antibody)
Kd (RSV-A F (RSV A) [10]): 0.035 nM | Kd (RSV-B F (RSV B) [11]): 0.221 nM | IC50, virus neutralization [12]: 2.42 ng/mL | IC50, neutralization of RSVA [13]: 7.74 ng/mL | IC50, virus neutralization [14]: 0.2 ng/mL | IC50, virus neutralization [15]: 1.25 ng/mL | EC50, virus neutralization (Fab testing) [16]: 0.0088 nM | IC50, virus neutralization [16]: 0.4 ng/mL | EC50, virus neutralization (Fab testing) [17]: 0.011 nM | EC50, virus neutralization (Fab testing) [18]: 0.0102 nM | EC50, virus neutralization (Fab testing) [19]: 0.0069 nM | IC50 (ng/ml), MPV A GFP neutralization [20]: > 2000 ng/mL | IC50 (ng/ml), RSV A GFP neutralization [21]: 0.483 ng/mL | IC50 (ng/ml), RSV B GFP neutralization [22]: 0.419 ng/mL | IC50, virus neutralization [23]: 0.57 ng/mL | IC50, virus neutralization [24]: 0.63 ng/mL | IC50, virus neutralization [25]: 0.76 ng/mL | IC50, virus neutralization [26]: 0.9 ng/mL | IC50, virus neutralization [27]: 1.02 ng/mL | IC50, virus neutralization [28]: 1.01 ng/mL | IC50, virus neutralization [29]: 1.14 ng/mL | IC50, virus neutralization [30]: 1.14 ng/mL | IC50, virus neutralization [31]: 0.48 ng/mL | % binding [32]: 28.5% | % binding [33]: 0.04% | % binding [34]: 0.049% | % binding [35]: 35.3% | % binding [36]: 35.8% | % binding [37]: 34.5% | % binding [38]: 60.2% | % binding [39]: 0.056% | % binding [40]: 0.031% | % binding (RSV F B N201S (RSV B)): 27.3% | % binding (RSV F B N208D (RSV B)): 0.026% | % binding (RSV F B N208S (RSV B)): 0.035% | % binding (RSV F B S443P (RSV B)): 38.5% | % binding (RSV F B, B Ref (RSV B)): 57.3% | Kd (RSV-A F (RSV A) [41]): 0.001 nM | Kd (RSV-B F (RSV B) [42]): 1.22 nM | Kd [43]: 0.0397 nM

MEDI8897-rIgG1-YTE (nirsevimab) (antibody)
Neutralization (IC50, ng/ml) [44]: 0.2 ng/mL | Neutralization (IC50, ng/ml) [45]: 0.4 ng/mL | IC50 (ng/mL) in neutralization against RSV [1]: 0.549 ng/mL | IC50 (ng/mL) in neutralization against MPV [2]: > 2000 ng/mL
